Patent US20230024933

Assays:
[1] = system: T1, phosphoserine substrate peptide RRApSVA
T1 sequence: RRASVA

[2] = target: histone γH2A.X^pY142, endogenous in primary murine fibroblast cultures (UniProt P27661)
[3] = system: T2, phosphotyrosine substrate peptide ENDpYINASL
T2 sequence: ENDYINASL

Row | Substance | serine phosphatase activity (dephosphorylation assay) [1] | γH2A.X^pY142 foci per nucleus after NCS exposure [2] | activity to dephosphorylate peptide ENDpYINASL [3]
1 | EYA1 isoform C (human splice variant EYA1C, exon 10 skipped) | dephosphorylation assays using the synthetic serine phosphatase substrate RRApSVA demonstrated superior serine phosphatase activity | – | –
2 | mutant EYA1C to which exon 10 had been added (EYA1C::e10) | – | EYA1C containing exon 10 (EYA1C::e10) phenocopied EYA1A with regard to premature γH2A.X^pY142 dephosphorylation | overexpression of EYA1C::e10 phenocopied dephosphorylating efficacy and fibroblast accumulation of EYA1A
